Results on 78 sequences are retold here after the supplement of paper PMC10724198.

± gives the standard deviation of the averaged measurements.
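Further: PSI is a weighted mean of sequencing reads over stability bins, variants kept only with over 10 reads, mCherry proximal and sfGFP distal, peptide attached via GGGS linker.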

The data set relates to Saccharomyces cerevisiae. As to the kind of experiment: protein stability index of tFT-peptide fusion (C-terminal peptide) (PSI (0-1 scale)); higher = more stable (slower turnover). The conditions noted are these: genetic background: wild type; temperature: 30 C. As for the experimental part:
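Multiplexed protein stability (MPS) profiling in S. cerevisiae. Random 12-aa peptides (tFT-X12 library) are fused to the C-terminus of a sfGFP-mCherry tandem fluorescent timer, after mCherry and a GGGS linker. Cells are FACS-sorted into 8 mCherry/sfGFP bins and deep-sequenced. The protein stability index (PSI) is the read-weighted bin average, scaled from 0 (unstable) to 1 (stable). Only peptides with >10 reads are reported; cells were grown at 30 °C in SC-His with glucose.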
The sequence GGVFWEEGAAER came in with a protein stability index of 0.731 ± 0.023. Next, GGVGATSGRLSR: 0.712 ± 0.011; GGVGGGVRRPGE: 0.669 ± 0.034. Next, GGVGRGGIRVMG: 0.629 ± 0.062. Under GGVGRSWQEVGG stands 0.72 ± 0.025; under GGVGVYSVMVGG, 0.575 ± 0.015.

The sequence GGVLERARRRGG came in with a protein stability index of 0.708 ± 0.2. Under GGVLERSRRRGG stands 0.741 ± 0.17. Under GGVLSAGSWSGG stands 0.665 ± 0.019. In turn, GGVNRPRKSTAT yielded a protein stability index of 0.6977 ± 0.0063. Under GGVSRRVNGREA stands 0.708 ± 0.008; under GGWGCWQAGGLT, 0.7444 ± 0.0016. Under GGWGGGGLGGAF stands 0.741 ± 0.037. Under GGWPREVVGRGG stands 0.671 ± 0.09; under GGWSGRFVTVGR, 0.713 ± 0.066. Regarding GGWWGRAGENTR, the protein stability index was determined as 0.729 ± 0.075. Under GGWWGWAGENTR stands 0.7 ± 0.048. GGYATYWVGVRL displayed a protein stability index of 0.697 ± 0.036.

The sequence GHGGSKIYCLVD yielded a protein stability index of 0.637 ± 0.062.

With GHLRPFPPPLLP, the protein stability index was 0.748 ± 0.089. The sequence GIFRTRGFPPVG came in with a protein stability index of 0.694 ± 0.088. GIGLSVGDVLGC showed a protein stability index of 0.73 ± 0.037. Next, GIIDGGTISRNK: 0.692 ± 0.013; GIISLTPRGCTR: 0.92 ± 0.11. GINEGRAISDDW: the protein stability index stood at 0.725 ± 0.021. Next, GIPEFGYLYLVT: 0.613 ± 0.017; GIPYGWLLCFPR: 0.813 ± 0.021; GIRAEPSGGQAE: 0.692 ± 0.057. Next, GISASYTASSSG: 0.642 ± 0.067. Under GISPFYTALSGF stands 0.754 ± 0.03; under GIVFRGVVTWLL, 0.6 ± 0.0085; under GIVRGFGGGGEE, 0.662 ± 0.026. For GKAGGNREGTGT, the protein stability index is 0.689 ± 0.048. Next, GKCTGSAEMRPQ: 0.627 ± 0.079; GKGEERGVATRT: 0.657 ± 0.0076; GKIEVNTRIPGG: 0.646 ± 0.078.

The sequence GKNKKSKTLIKQ registered a protein stability index of 0.669 ± 0.029. On to GKRAKKKNTKRY, for which the protein stability index is 0.662 ± 0.14.

The sequence GKRHICFNHSGE gave a protein stability index of 0.6966 ± 0.0045. Under GKRKKERGGGER stands 0.711 ± 0.093. Under GKRRCRREVERK stands 0.695 ± 0.018; under GKRTGRKKRRKR, 0.638 ± 0.095.

Consider GKRWPSINKGPV, for which the protein stability index was 0.6851 ± 0.0051. Under GKVGGQGGKGVV stands 0.765 ± 0.13; under GLACWALLTCNR, 0.726 ± 0.015. Next, GLCPALQFPLHE: 0.68 ± 0.024; GLCRRLDRQLAN: 0.6787 ± 0.0026; GLFAPVGLGFGL: 0.724 ± 0.012. Next, GLGACMVNELLG: 0.648 ± 0.018. Sequence GLGGGVGGWLVV yielded a protein stability index of 0.705 ± 0.041. Next, GLGGRFSWVDGV: 0.756 ± 0.012. Next, GLGGRVWSDMGG: 0.745 ± 0.11; GLGTIYGGEWWW: 0.759 ± 0.085. As for GLGWGGVGVAGV, the protein stability index was determined as 0.705 ± 0.076.

In the case of GLKVVENWIECA, the protein stability index stood at 0.555 ± 0.044.

Sequence GLNPPDPYPVSF showed a protein stability index of 0.754 ± 0.11. Under GLPLPPPHPFSL stands 0.7793 ± 0.0021; under GLPPPAPRRPDL, 0.664 ± 0.0077. Under GLPSSYLSALFR stands 0.708 ± 0.029; under GLQFRPFCVLEL, 0.634 ± 0.013; under GLSPPLCSTPSR, 0.736 ± 0.0092. For GLSWTVDDGHGG, the protein stability index is 0.683 ± 0.039. Next, GLVGGLCIGRLV: 0.672 ± 0.024; GLVVCDGGGVGC: 0.684 ± 0.14; GLWIRAEISLVS: 0.575 ± 0.016. GLYCDDSYPRPH had a protein stability index of 0.666 ± 0.1.

Consider GMCWTEGNTAVL, for which the protein stability index was found to be 0.697 ± 0.06. With GMDGRGGGGSVV, the protein stability index came out at 0.723 ± 0.039. Under GMLSIHWNIGGT stands 0.725 ± 0.014; under GMRGGGGWCRGW, 0.671 ± 0.043. Under GMRILRLIHVIP stands 0.571 ± 0.031.

GMSRLFTYRAAS: the protein stability index is 0.72 ± 0.0091. Under GMTYWFCSFPFF stands 0.686 ± 0.04. GMVTCTSPRCHK displayed a protein stability index of 0.694 ± 0.016. Next, GNFDRVSMTKFR: 0.73 ± 0.035; GNSGAFTPSTQW: 0.687 ± 0.055; GPAPAPPALSSC: 0.745 ± 0.0089. Next, GPCFPRRSAPSD: 0.67 ± 0.046.
